Reference: article PMC1635332

Legend:
GA-1 DNA polymerase = target: T1, GA-1 DNA polymerase (Bacillus phage GA-1, UniProt Q96206 1-578); assay: EMSA
T1 sequence: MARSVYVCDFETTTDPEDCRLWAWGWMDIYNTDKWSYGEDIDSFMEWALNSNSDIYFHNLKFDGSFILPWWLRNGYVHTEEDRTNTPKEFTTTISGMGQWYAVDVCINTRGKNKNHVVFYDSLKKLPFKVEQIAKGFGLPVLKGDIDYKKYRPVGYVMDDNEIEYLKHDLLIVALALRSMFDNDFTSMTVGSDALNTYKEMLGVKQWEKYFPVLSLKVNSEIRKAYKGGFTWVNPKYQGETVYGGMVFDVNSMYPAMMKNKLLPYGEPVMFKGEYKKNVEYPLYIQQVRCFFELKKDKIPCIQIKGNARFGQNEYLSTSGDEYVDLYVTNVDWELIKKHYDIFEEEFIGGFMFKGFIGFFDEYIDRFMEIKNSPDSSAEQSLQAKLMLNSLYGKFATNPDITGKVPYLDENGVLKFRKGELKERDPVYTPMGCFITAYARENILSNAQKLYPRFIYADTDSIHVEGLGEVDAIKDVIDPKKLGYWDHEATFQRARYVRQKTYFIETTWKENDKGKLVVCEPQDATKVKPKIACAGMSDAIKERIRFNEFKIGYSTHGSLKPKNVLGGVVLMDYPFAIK

Nf DNA polymerase = target: T2, Nf DNA polymerase (Bacillus phage Nf, UniProt B7SSM2 1-572); assay: EMSA
T2 sequence: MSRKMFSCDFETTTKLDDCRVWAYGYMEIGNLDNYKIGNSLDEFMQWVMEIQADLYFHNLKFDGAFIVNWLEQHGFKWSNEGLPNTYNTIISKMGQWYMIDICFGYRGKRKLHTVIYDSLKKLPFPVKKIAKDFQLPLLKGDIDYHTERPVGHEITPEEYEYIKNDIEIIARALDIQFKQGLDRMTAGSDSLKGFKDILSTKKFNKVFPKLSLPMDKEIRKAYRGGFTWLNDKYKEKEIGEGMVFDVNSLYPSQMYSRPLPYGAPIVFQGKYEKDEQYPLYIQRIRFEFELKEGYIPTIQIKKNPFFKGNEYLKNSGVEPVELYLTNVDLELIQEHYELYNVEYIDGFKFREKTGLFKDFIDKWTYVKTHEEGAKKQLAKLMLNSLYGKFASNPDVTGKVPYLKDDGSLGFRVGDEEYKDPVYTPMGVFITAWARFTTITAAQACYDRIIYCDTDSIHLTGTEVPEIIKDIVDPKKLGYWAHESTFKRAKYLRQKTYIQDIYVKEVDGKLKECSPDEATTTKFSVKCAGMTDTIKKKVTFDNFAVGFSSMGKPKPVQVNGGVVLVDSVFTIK

B1: sp1/sp1c+6 (15/21mer primer/template) (dsDNA)
DNA 1: GATCACAGTGAGTAC
DNA 2: TCTATTGTACTCACTGTGATC
binding result (GA-1 DNA polymerase): no binding | Kd (Nf DNA polymerase): 1.5 nM
